Experimental data from the domain aggregation screens of Martell et al. (2025).

Experiment: soluble fraction after stress (log2 fold change); higher = more stays soluble; pooled small domains, quantitative proteomics
Conditions: stress: pH 4
Summary of the method: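 Aggregation propensity is estimated from the fold change in each domain's soluble amount after acid stress. Pooled small-domain libraries were stressed at pH 4, and higher log2 values mean more stayed soluble.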

Sequence	soluble fraction (log2)
HMRVGADLTQRERELLALMAQGMSNQEIAKRLEIAVPTVKFHITNILDKLQVGNRTEAVIAALEHKLVP	-0.767
HMSVPRVWTDIQGRRVKGDFEGLRGDLVVLRVGGKSYAFPLVRLIASDQAYARSLVAGNPSK	0.22
HMTRNEFMTALRKRLSHLPAEEQDAALKYYEEYFDEAESEEEAARQLGSPDAIADRILADYGAG	-0.261
HMADLKVGFVHRAGSVLERELDDVLEALEMYRSALAIDPSHKPSLDALTRISQLADYREQAAEILEPLPR	-1.04
HMNIDVAAEKQQLGPNADQIVKGTVTWMQGLVAKGIWSETDFEEGKIFTATADGINAINKIRRYYGEQT	-0.439
HMKRFSPPSIEEVDSYIREKGYTVDAERFVNFYESKGWYVGKNKMKNWRAAVATWQKEDNKRN	-0.0455
HMTKQIILVHVAGKVKKPDVYPLLQGSRVADAIKAAGGAKKGVELNDINLARVLIDGEQVFVGYVPE	-0.277
HMSADDSDDRKGIDAWLTQLLANGSVKATEVYSAADAAGYSKDQAKRAKRRLAIEAVREAMDGPWFWRLD	-0.742
HMKTVKPSQIPYSEFLKLVETDKINDVSMVGRNIIGHLDDGSKFKTYTPPNDPTLIEKLSSHNIVINAAPE	0.134
HMLAQYPGQVFSKEQIYNQVWKEPYYGVEDNVMSLIRRIRKKIEPDPSRPIYILTVWGIGYKFNN	0.0406
HMENISVESKMKLLLKSLKTRDFISLPELVLKGESKLAISVILVAALELNRKGYIEVVQAEQFGEIYFKNT	0.0399
HMSPFYALDEVDSFLDGVNVERLAALIARQAEQAQFLVVSHRRPMIGASTRTIGVTQARGAHTQVVGLP	-0.872
HMKITFNPVSSGRLDIILAEKTGYTRSYVKQLVEKQAVTINGEAAKKSGQNVKAGDEIALDEP	0.149
HMIFEETVFKDIAFGPKNMGLSEAEIKRRVYETAENIGLSQELMERSPFELSGGQKRRVAIAGVMAMEP	-0.878
HMKAGEDAVQKAVLEAVAESAAAVADYKAGSERALNFIVGKVMKKTRGKASAAEVHRLVREEVDR	0.079
HMKDHKSKWMAKTELDSIAKNLSKKHAISLDYEEDGTRFYAGGQSPLGIGRLFTVFVAPRNGHWSDQLR	-0.0435
HMPPSRFNELSMWFQEQLTEAGLKVDSGALKMLIEWLGQDQARLPSIIEVLVSTYGTKKKLTVDEIEPFL	-1.02
HMNQAIIVPDVKGLPLEEATTFFENNDLRYTVIDSVYTKDVPPGAIYEMVPGAGSKVKEGRIIFVTLNAR	-0.565
HMTEDADIERRLTGILASAGWYRSLAVEVKEGIVYLDGATASGNHRDWAGSLAAKTEGVVAVVNRIEVQP	-0.285
HMKNKFYEEFSDYIFKHTGIHYAEANYYQLDARINKLMKFLETSDENDVLKAIQGGAVKDQRVHQMIVDLA	-1.27
HMWDRFGELDSAEEINRIAAAELREGDIDALKVLAEENGLDKDDVEDYIDRLIDELTTPELAAIGKLDV	-0.0336
HMEVLSKRGSTGTEVINIQKKLKNWGYYTGSVDGIYGKLTEEAVRYFQRTNGLTVDGIAGKNTLAAMGIA	0.399
HMTTGTVKWFNDAKGFGFITPDDRSVDVFVHYSNIVGQSGRRTLMEGERVEYEAIEGPKGPQATDVARA	-1.06
HMKQPNSYGSVHKLPGKRRKPWRVRKTSGWLLDEQSGTVKQQYITIGYYATKQEALIALADYNENP	-0.434
HMSPFAHHLHELRMRHGIRQNELAELIGYDQTYISALEVGLKGPPTPEFVDKLVEGLALSRTEEAALRSAA	-0.562

Sequence	soluble fraction (log2)
HMENFSTLFSRLKEERGLSNKQISSFTGAPIKEVKKWESGMGIPTEKRIVAALEGILGSEISKAI	0.353
HMTTMTTGQRIAAKRKEQGLSQENLGEQLGVSRQAIYKWESDASLPDIDKLIALSRLFGVSTDYLLLE	-1.68
HMVRSEDLIGLQGRITLATDVETRGFVELSVKGSLLRRPALSLKGPLAKNTAVVVTASNDHTLEVEAL	-0.77
HMEVAAAENYRSKLSSFAKDTISVWQTELLLGTISDDDKASLTEWMAYIKALQVVDTSDPESITWPTEPT	-1.12
HMPVYEEEVPAALDGQRLDRVVAMVTGLSRSEVGALLAAGAVTVDGTTPAKGSVRLAAGSIVSVTVS	-0.366
HMYLYADIYKKLEEKIKNMEVGEKLPSERAMVQEYGVSRNVLREALVLLSERGLIEIRPGKGSYVTNQQ	-0.177
HMNTKDRIKQLAAQRKITIAELERKLHIANGTIGKWDKQNPSIEPLKKLADYFGVTTDYLLGRT	-0.219
HMDPPYKDKNLHELLLKINNLNILKKDSVIILHRHKKQKEIFPSNFKIIEQKQYGISKIIFLTVL	0.217
HMGGPRDVPYSTFLIEVEKGQVAEVTIQDHKITGTYKNSNEPFITNAPDDPDLVSRLIKYGVGVQAKPPE	0.0182
HMKNNYQYIVDQIKQLILDGELIVGDRLPSERDLSEMYQVSRASVREALKALETIGLLESRHGGGNYIVNH	-0.68
HMITMWYYKKDGNIIGPASARKIASMRELGIITDSTPVSRKRNAKNWETFGGLSEKINLESSQWD	0.0852
HMSREEFLTELRKALQGRVSQQTVNDNLRYYEEYILTESHKGKTEAEVIAELGNPRLLAKSIIDAENAT	-0.0903
HMGSFDDAPDQLRQSILQLLAEGPLPPSAITERLNISREDATEALQQLLDEQRIFAVNGMLQLQPG	-0.538
HMESPLNPTDVRRAAMDLLARREHGVEELRLKLKRRFGREEDFETIATEQLQRLVDEDLLSDTRF	-0.948
HMSNSMISKDKAMSIALAKVSGATSSNIYIELEKDDGRYTYEGEINFNNKEYEFEIDAYTGNILKWEVDSI	-0.0257
HMTGKLGKIILQPKQTVYGITKKYQISESELRRLNPQLDSHLKIGDEVILPAENIKKFGGNQPVAVS	≥ 0.43
HMNGVPDMSPVPEGARNSTLHAWAFGRLKNHPDNETGIREDLFRRGHASGLQDAELDQIWKSIKRTL	≥ 0.43
HMSENDTILAKFVSVMGNKNLELVIFPDIAYLKGQVSNPEDKTKAETVAQSLLGGKPLVSLIEFE	-0.917
HMNRTKQIYNELLFRLDQGVYPPESKFPSESQLADEFSVSKVTMNKIVSMLASSGRLSRGVRGAGTFVSSP	0.319
HMAATISPEIQAEAEKAAALGVESIKNFMASLKEKNPEQHALFSDSEKRRLYAIARKADLNTTQQG	0.0597
HMKTRTVVLKSAGGNKIAVIKIIKEITGLGLVEAKAVADNGGNIKENIPAEEAEAIKTQLTEAGAEVEL	-0.242
HMKVTGITDDILQRLKQQKGYLMLSDKSSPDEIYAAFGVSKKVFKQAIGTLFKQRQIIIEEQGIRLAN	0.201
HMSETQDQTTIEIEDMITVGTLAERLSIPVSTLIGELMKNGVMATVNEKIDFDTAQIIVGELKLPIELSKK	-0.269
HMTEEVIIQNYIGKNFNDVRDELEAKGITVDEPNMKYSDEFKENTIMAQSIKPGQPLKPGGFNSIKFDVS	0.147
HMLAIKKGGIFAILGPNGSGKSTFSKVLAGHPAYTVVDGDIFFKGLSILDLEPEERSHLGIFLAFQ	-0.151

Sequence	soluble fraction (log2)
HMYNTDAMGVRIGELRRAKGLTQEAFAKTLGISAQAVSKWETGLGFPDISLLPMIAETLGTKIETLFGAE	-0.272
HMVTQVDYGTFLTRIDEGKVKSVEIQDNQIAFTAIDEAGKENIYVTGKVNDPELVDRLLAADIEDFSQVIP	-1.29
HMYKIDFAEGDRVIIKGGAFSGLRATVVSLHPEKGMAKIKVYMFGDRETLVDIEVSQLEKDK	0.113
HMPALATKDSVLDGRAEVVSYVRDTSVFYLRVRVPQKQGYRSRRIDGVSTLPEAITKALDTYMDLGT	-1.02
HMETSLVIQIDGAVNSPGIYQVTPGTRIFEALELAGGVREDAQTEALNLALPVYDGQRISIPSSFA	-1.58
HMHRFAVLDTVREVAAGGVAATLSIGVGRDADSFDALFKNASMALEMALSRGGDQAVVKDRMNFQFYGG	-0.0192
HMFIMQTVALGSEGPDVRALQSILNRIGYNAGTVDGIFGSRTRQAVIAFQRNNGLAADGVAGPATWG	-0.0509
HMASVDDILDRFKQAAKVTTDADLAKVLGLSRQSIAAARLRAKIPASWFPKMSSLFNISTEWLYRG	0.011
HMDNPNVMAQVKSLLASKGLSEQEVKERLKAKGLNIDAMSDAEIAQNRSVIEQTIAELEAEKKKAG	0.287
HMYGSLGEYELAAVQWIYGKGKITTRELSSLIGKGLTLSSKTLRGLAAKGILEWHGNSKNDPSQFYSLP	-0.196
HMNGKWKLRIIKELLHSNIRFGQILKNIPDISPKVLSQQLKEMEEDGIIERIVISEMPPNVEYVLTDMGE	-0.458
HMYIDANTALLAKRIQAKNGFLPLSDKSTAEEIYAEFGISKKAFKKALGALYKERLVRIGDEGVVWV	0.0176
HMAESSPYTVRPGDTLWKILAQTQNARYNDFPYLYRKFRELNPNITDLNHIVSGQKIIVPHIPG	0.196
HMFIKVEVPDLTGMTLTEVRKALEEKNLKMGDIRPAGQTSLVAKVINQSPQAKMVVDEYSEVSIQFEE	0.166
HMHDEKHHQLANEIARKWAALRGNRDFAAADELKNLAAEAGVELQATKQAVGQGALAKLKENFDPVKLEAL	0.22
HMVQIQDIAFSEFLNELEKGNILDVNIKGDLINGNMLDGKKFKTYAPYDPSLVEKLSKQNVTINVEPVN	-0.06
HMGTISKRINPSGTTVYRAVIRIRKNGYPNFTESRTFSKKSMAAEWVKRREAEIELNPDILFG	-0.0195
HMLEAKQIQDNWESLIKLIEDNFTGERKENLLKMYTHFQDRMMFAPASSKEHFHNAFPGGYVEHVL	-0.942
HMALPDWLDPEAWAAWKRHRKAIRKPLTEDAVALSIRELAKLRDEGYGPTSVIENAILKGWQGLYPPK	0.143
HMTQTAVFSKGEQEYYFPLSKVLFFETDGNTINVHTADDIYETRYRLYELEEMLPGSFMRISKSAVVNTNR	-0.161
HMEPEDVIAMERYLASGAIKGIGVTLAGRIIKKFQKETFHIIEEEPERLSEVKGISEKLAREIYQQFTQK	-0.187
HMLARFSGIALNTWTQADVERTFGPPMLVERVARFDGDIWTYRFMDDYEPRMAHIHIDRAGTVRQLVF	-1.74
HMENLIEELTAKNKEYIHSVTKQLILVGKSDEEVKEILNDILPQIIEGQKSGIIARKLLGAPTEFVSQYQP	-0.317
HMKLSKLTKPELDEIFRNANFTEEEEKVFWLLARGKSLEQISAKTFLPIATVNRRVKSIKDKIG	0.34
HMLAKRYLVYGSGSLNSAYPDTKNIAYGIDSGKGFFLVGILTENEASKLKLKGYYVIEDFPLDFH	-0.921
